# Measurements: publication PMC12184499, “Pathogenic variants in the polycystin pore helix cause distinct forms of channel dysfunction” (Proceedings of the National Academy of Sciences of the …, 2025)
# Residue numbers refer to the chain shown, from its start. Numbers in names are those of the source.
# B1: PKD2 WT channel (hPKD2: 52-793) (domain or fragment, human, UniProt Q13563 52-793, looked up)
# chain: LEIEMQRIRQAAARDPPAGAAASPSPPLSSCSRQAWSRDNPGFEAEEEEEEVEGEEGGMVVEMDVEWRPGSRRSAASSAVSSVGARSRGLGGYHGAGHPSGRRRRREDQGPPCPSPVGGGDPLHRHLPLEGQPPRVAWAERLVRGLRGLWGTRLMEESSTNREKYLKSVLRELVTYLLFLIVLCILTYGMMSSNVYYYTRMMSQLFLDTPVSKTEKTNFKTLSSMEDFWKFTEGSLLDGLYWKMQPSNQTEADNRSFIFYENLLLGVPRIRQLRVRNGSCSIPQDLRDEIKECYDVYSVSSEDRAPFGPRNGTAWIYTSEKDLNGSSHWGIIATYSGAGYYLDLSRTREETAAQVASLKKNVWLDRGTRATFIDFSVYNANINLFCVVRLLVEFPATGGVIPSWQFQPLKLIRYVTTFDFFLAACEIIFCFFIFYYVVEEILEIRIHKLHYFRSFWNCLDVVIVVLSVVAIGINIYRTSNVEVLLQFLEDQNTFPNFEHLAYWQIQFNNIAAVTVFFVWIKLFKFINFNRTMSQLSTTMSRCAKDLFGFAIMFFIIFLAYAQLAYLVFGTQVDDFSTFQECIFTQFRIILGDINFAEIEEANRVLGPIYFTTFVFFMFFILLNMFLAIINDTYSEVKSDLAQQKAEMELSDLIRKGYHKALVKLKLKKNTVDDISESLRQGGGKLNFDELRQDLKGKGHTDAEIEAIFTKYDQDGDQELTEHEHQQMRDDLEKEREDLDLDH
# notes: PKD2 (polycystin-2), human, residues 52-793 (hPKD2: 52-793); Construct is Strep-MBP-TEV-PKD2; the Strep tag lies before MBP and the TEV site, so it probably left with MBP on TEV cleavage; The cryo-EM methods give 53-792 for the variants; also called polycystin; source: Expi293F GnTI-/- cells, transient transfection, purified (Strep-Tactin, amphipol A8-35, SEC); not shown: MBP, N-terminal, cleaved
# B2: PKD2 F629S variant channel (hPKD2: 52-793) (domain or fragment, human, UniProt Q13563 52-793, looked up)
# chain: B1 chain with F578S
# notes: PKD2 (polycystin-2), human, residues 52-793, ADPKD germline missense variant F629S in pore helix 1; Construct is Strep-MBP-TEV-PKD2; the Strep tag probably left with MBP on TEV cleavage; The cryo-EM methods give 53-792; the model holds E214-Q694 without M295-A303; source: Expi293F GnTI-/- cells, transient transfection, purified (Strep-Tactin, amphipol A8-35, SEC); not shown: MBP, N-terminal, …
# B3: PKD2 R638C variant channel (hPKD2: 52-793) (domain or fragment, human, UniProt Q13563 52-793, looked up)
# chain: B1 chain with R587C
# notes: PKD2 (polycystin-2), human, residues 52-793, ADPKD germline missense variant R638C in pore helix 1; Construct is Strep-MBP-TEV-PKD2; the Strep tag probably left with MBP on TEV cleavage; The cryo-EM methods give 53-792; the model holds E214-Q694 without M295-A303; source: Expi293F GnTI-/- cells, transient transfection, purified (Strep-Tactin, amphipol A8-35, SEC); not shown: MBP, N-terminal, …
# Key:
# [1] = biological target: the molecule itself; assay: SEC; Superdex 200 10/300 GL; PKD2 52-793 extracted with DDM and reconstituted in amphipol A8-35; Buffer B (25 mM pH 7.4, 150 mM NaCl, 1 mM TCEP, 1 mM CaCl2); oligomer and protomer peaks
# [2] = biological target: the molecule itself; assay: cryo-EM structure; single-particle cryo-EM of variant channels in amphipol A8-35 (0.5 to 1.0 mg/mL), refined with C4 symmetry
Protein,binding result [1],stoichiometry N [2]
B1,binds,–
B2,–,4
B3,–,4
